Measurements taken from IntAct's records for PubMed 19933576.

B1: Prelamin-A/C (Homo sapiens), P02545 (parent)
chain: METPSQRRATRSGAQASSTPLSPTRITRLQEKEDLQELNDRLAVYIDRVRSLETENAGLRLRITESEEVVSREVSGIKAAYEAELGDARKTLDSVAKERARLQLELSKVREEFKELKARNTKKEGDLIAAQARLKDLEALLNSKEAALSTALSEKRTLEGELHDLRGQVAKLEAALGEAKKQLQDEMLRRVDAENRLQTMKEELDFQKNIYSEELRETKRRHETRLVEIDNGKQREFESRLADALQELRAQHEDQVEQYKKELEKTYSAKLDNARQSAERNSNLVGAAHEELQQSRIRIDSLSAQLSQLQKQLAAKEAKLRDLEDSLARERDTSRRLLAEKEREMAEMRARMQQQLDEYQELLDIKLALDMEIHAYRKLLEGEEERLRLSPSPTSQRSRGRASSHSSQTQGGGSVTKKRKLESTESRSSFSQHARTSGRVAVEEVDEEGKFVRLRNKSNEDQSMGNWQIKRQNGDDPLLTYRFPPKFTLKAGQVVTIWAAGAGATHSPPTDLVWKAQNTWGCGNSLRTALINSTGEEVAMRKLVRSVTVVEDDEDEDGDDLLHHHHGSHCSSSGDPAEYNLRSRTVLCGTCGQPADKASASGSGAQVGGPISSGSSASSVTVTRSYRSVGGSGGGSFGDNLVTRSYLLGNSSPRTQSPQNCSIM
partner: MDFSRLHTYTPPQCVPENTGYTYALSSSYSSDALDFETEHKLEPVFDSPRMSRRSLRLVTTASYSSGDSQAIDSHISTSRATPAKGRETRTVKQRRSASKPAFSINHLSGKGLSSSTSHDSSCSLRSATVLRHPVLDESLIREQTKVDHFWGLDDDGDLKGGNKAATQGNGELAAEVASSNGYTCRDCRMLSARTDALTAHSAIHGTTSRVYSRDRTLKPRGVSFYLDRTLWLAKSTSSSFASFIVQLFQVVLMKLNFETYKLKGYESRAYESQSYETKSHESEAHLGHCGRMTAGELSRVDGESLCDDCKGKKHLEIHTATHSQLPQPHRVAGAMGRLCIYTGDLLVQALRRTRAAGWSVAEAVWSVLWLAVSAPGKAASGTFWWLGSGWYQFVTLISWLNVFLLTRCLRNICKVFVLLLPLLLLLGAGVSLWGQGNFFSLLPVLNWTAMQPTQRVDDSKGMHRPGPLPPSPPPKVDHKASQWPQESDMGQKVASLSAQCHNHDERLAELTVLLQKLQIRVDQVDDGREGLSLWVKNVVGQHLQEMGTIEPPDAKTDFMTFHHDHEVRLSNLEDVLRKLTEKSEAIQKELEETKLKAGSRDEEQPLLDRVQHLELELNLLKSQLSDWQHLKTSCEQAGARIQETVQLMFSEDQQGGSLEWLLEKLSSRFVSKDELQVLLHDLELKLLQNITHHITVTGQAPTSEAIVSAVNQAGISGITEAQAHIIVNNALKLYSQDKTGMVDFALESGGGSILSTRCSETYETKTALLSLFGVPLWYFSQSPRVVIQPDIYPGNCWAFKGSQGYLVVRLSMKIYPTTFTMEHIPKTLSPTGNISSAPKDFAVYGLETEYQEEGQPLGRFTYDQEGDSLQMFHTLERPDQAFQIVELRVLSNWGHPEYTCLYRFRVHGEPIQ

Variants of: B1
Settings: with sun1_mouse Sun1, Q9D666

Row | effect of a mutation on the interaction | Variant
1 | disrupting interaction | R527P
2 | disrupting interaction | L530P
